Test results as given in publication PMC4472530 (2016).

T1: RLC-depleted cardiac beta-myosin (myosin heavy chain) (Sus scrofa, UniProt P79293)
T1 chain: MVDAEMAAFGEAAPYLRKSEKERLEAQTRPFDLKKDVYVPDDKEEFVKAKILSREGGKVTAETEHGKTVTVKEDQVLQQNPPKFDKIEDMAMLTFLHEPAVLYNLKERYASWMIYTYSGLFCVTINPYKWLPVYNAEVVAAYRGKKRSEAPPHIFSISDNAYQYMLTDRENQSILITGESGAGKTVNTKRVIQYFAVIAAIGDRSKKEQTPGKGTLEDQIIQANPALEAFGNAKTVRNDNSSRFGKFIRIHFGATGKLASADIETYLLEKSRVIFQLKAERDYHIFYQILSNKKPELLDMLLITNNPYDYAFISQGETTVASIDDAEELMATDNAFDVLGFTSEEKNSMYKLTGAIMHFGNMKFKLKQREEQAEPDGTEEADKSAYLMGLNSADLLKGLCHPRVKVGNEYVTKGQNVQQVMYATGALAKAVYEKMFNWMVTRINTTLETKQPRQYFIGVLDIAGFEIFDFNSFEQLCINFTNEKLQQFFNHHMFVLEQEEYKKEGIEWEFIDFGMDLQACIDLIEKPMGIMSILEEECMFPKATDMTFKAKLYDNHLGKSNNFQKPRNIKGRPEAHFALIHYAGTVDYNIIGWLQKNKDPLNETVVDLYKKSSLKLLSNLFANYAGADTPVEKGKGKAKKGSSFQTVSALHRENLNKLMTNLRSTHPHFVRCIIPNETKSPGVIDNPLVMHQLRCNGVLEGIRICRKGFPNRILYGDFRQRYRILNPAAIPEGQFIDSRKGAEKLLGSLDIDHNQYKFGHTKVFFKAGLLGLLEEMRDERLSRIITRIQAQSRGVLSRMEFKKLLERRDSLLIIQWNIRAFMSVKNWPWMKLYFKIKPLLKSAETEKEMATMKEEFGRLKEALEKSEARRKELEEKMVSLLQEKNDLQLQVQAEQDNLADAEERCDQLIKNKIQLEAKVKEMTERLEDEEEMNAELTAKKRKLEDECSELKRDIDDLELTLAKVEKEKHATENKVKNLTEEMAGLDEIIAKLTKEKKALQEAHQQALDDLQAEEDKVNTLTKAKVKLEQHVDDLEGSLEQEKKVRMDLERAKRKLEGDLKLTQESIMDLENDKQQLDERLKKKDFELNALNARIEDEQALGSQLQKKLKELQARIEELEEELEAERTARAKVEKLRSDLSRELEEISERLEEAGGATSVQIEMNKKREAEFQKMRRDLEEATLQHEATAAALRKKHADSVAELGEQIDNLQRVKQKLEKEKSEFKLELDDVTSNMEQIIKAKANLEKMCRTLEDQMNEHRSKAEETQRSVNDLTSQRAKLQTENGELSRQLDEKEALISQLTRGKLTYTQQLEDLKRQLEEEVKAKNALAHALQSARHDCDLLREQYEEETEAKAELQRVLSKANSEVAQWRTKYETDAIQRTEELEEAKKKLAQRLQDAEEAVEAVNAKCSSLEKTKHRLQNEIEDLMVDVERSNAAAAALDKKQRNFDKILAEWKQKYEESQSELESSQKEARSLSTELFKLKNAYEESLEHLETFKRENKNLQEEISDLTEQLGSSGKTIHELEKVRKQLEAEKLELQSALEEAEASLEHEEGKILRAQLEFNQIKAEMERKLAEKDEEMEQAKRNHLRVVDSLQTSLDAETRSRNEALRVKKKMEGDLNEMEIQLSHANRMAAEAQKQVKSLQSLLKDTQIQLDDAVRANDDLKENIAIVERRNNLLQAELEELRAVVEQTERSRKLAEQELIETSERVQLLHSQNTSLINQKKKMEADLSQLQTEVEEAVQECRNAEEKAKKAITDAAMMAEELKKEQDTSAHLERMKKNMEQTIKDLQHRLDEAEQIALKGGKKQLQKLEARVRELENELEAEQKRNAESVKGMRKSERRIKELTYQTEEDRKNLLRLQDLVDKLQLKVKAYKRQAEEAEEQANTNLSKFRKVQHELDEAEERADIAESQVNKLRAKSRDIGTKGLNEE


Target: T1, RLC-depleted cardiac beta-myosin …
Test: SDS-PAGE titration/co-precipitation binding isotherm

Binder | Kd [µM]
Myosin regulatory light chain 2, ventricular (protein) APKKAKKRAGGANSNVFSMFEQTQIQEFKEAFTIMDQNRDGFIDKNDLRDTFAALGRVNVKNEEIDEMIKEAPGPINFTVFLTMFGEKLKGADPEETILNAFKVFDPEGKGVLKADYVREMLTTQAERFSKEEVDQMFAAFPPDVTGNLDYKNLVHIITHGEEKD | 3.2
Myosin regulatory light chain 2, ventricular (protein) APKKAKKRAGGANSNVFSMFEQTQIQEFKEAFTIMDQNRDGFIDKNDLRDTFAALGRVNVKNEEIDEMIKEAPGPINFTVFLTMFGEKLKGAAPEETILNAFKVFDPEGKGVLKADYVREMLTTQAERFSKEEVDQMFAAFPPDVTGNLDYKNLVHIITHGEEKD | 4.9
